This is an account of results in patent US20230383006A1 (ADIENNE S A, published 2023).

Assay [1] deals with T1, porcine CD26 expressed on minipig T lymphocytes (porcine (minipig), UniProt P22411 1-766).
T1 construct: whole, on cells; Native CD26 on lymphocytes isolated from minipig peripheral blood; also called minipig CD26; Porcine Antigen as a transmembrane protein expressed on T lymphocytes
The experiment in a line: multiparametric flow cytometry on lymphocytes from minipig peripheral blood, CD3 (FL1-H) against CD26/CDina26 (FL2-H).

In assay [2] the target is T2, Porcine Antigen (purchased from Sigma CAT #D 7052) (porcine, UniProt P22411 38-766, limits assumed).
T2 construct: Bought soluble protein; also called porcine CD26; Porcine Antigen (Ag)
T2 sequence (P22411 38-766 limits assumed): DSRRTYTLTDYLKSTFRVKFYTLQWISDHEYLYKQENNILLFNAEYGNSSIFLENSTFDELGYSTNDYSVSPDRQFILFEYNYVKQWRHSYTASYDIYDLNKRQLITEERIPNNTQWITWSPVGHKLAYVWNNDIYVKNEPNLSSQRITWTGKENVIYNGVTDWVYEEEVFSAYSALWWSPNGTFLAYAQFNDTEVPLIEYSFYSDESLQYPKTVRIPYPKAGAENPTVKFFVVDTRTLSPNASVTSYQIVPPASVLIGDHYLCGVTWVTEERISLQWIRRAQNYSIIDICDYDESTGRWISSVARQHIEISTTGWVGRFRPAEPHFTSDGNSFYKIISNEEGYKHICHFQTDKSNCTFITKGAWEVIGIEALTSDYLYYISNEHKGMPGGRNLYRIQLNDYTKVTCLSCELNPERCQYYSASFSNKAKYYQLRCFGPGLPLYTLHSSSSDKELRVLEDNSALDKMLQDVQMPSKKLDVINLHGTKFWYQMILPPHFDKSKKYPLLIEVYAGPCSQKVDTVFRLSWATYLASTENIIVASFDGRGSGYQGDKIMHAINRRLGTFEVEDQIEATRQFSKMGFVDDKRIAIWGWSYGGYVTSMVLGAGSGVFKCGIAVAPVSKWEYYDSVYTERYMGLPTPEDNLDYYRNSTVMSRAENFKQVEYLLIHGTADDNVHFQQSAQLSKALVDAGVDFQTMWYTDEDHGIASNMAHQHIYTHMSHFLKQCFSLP
The experiment in a line: Biacore, CDina26 captured by an immobilized polyclonal anti-mouse Ig antibody, Porcine Ag injected in solution.

Assay [3] has as its target T3, Human Antigen (purchased from Sigma CAT #D4943) (human, UniProt P27487 29-766, limits assumed).
T3 construct: Bought soluble protein injected in solution in Biacore; also called human CD26; Human Antigen (Ag)
The assay can be described thus: Biacore T100, CDina26 captured by immobilized polyclonal anti-mouse Ig antibody, human antigen injected at two concentrations.

The target in assay [4] is T4, Matrix 3 discontinuous CLIPS peptides covering residues 226 to 252 of human CD26 (human, peptides fixed on a CLIPS scaffold through thiol side chains of cysteines).
T4 construct: A set of peptide constructs from this range; also called protruding loop of CD26
T4 sequence (peptide, as listed by the source): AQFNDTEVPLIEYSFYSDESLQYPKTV
The experiment in a line: CLIPS epitope mapping, discontinuous peptides, Matrix 3. An excerpt: The epitopes recognized by the CDina26 antibody produced by hybridoma cell line deposited as PD 12002 have been identified by CLIPS™ Epitope Mapping technology. See, e.g., U.S. Pat. Nos. 7,863,239 and 7,972,993, the disclosures of which are herein incorporated by reference in their entirety. Briefly, CLIPS™ technology structurally fixes peptides into defined three-dimensional structures. […] The CLIPS™ reaction takes place between bromo groups of the CLIPS™ scaffold and thiol side chains of cysteines. The reaction is fast and specific under mild conditions (Timmerman et al., J. Mol. Recognit. 2007; 20: 283-29).
CLIPS™ library screening starts with the conversion of the human CD26 target protein into a library of overlapping peptide constructs, using a combinatorial matrix design. On a solid carrier, a matrix of linear peptides is synthesized, which are subsequently shaped into spatially defined CLIPS™ constructs. Constructs representing several parts of a discontinuous epitope in the correct conformation bind the antibody with high affinity, which is detected and quantified. […] Affinity information is used in iterative screens to define the sequence and conformation of epitopes in detail.

Assay [5] has as its target Purified recombinant human CD26 (rhDipeptidyl peptidase IV; Creative BioMart; CAT #DPP4-116H) (human, UniProt P27487 29-766). The assay can be described thus: SPR (Biacore), 25 C, CDina26 captured on anti-IgG2b CM5 chip, human CD26 as analyte at 30-810 nM. On the procedure:
Surface Plasmon Resonance system (Biacore®) was used to determine the affinity of CDina26 for human CD26 according to standard protocols. Affinity measurements were taken at 25° C., immobilizing on carboxymethyl dextran chip (CM5) 10.000 RU of an anti-IgG2b antibody (GE Healthcare, 22-0648-97 AC). CDina26 was prepared as stock in HBS-EP (0.01M HEPES, pH 7.4, 0.15M NaCl, 3 mM EDTA, 0.005% Surfactant P20) running buffer in a final concentration of 50 μg/ml, and for each experiment 2.000 RU were reversibly immobilized on the chip by injection with a flow of 10 μl/min in a period of 180 seconds.
Purified recombinant human CD26 (rhDipeptidyl peptidase IV; Creative BioMart; CAT #DPP4-116H) was prepared in a stock concentration of 5.8×10^-6 M. CD26 was injected at increasing concentrations of 30×10⁻⁹, 90×10⁻⁹ M, 270×10⁻⁹ M and 810×10⁻⁹ M. The CD26 samples were injected with a flow of 10μl/minute; with HBS-EP buffer used as running buffer. A typical recording included a 3 minutes period of injection of the CD26 followed by a period of 8 minutes of dissociation. The raw binding data was analyzed according to standard methods. CM5 chip with immobilized anti-IgG2b antibody was regenerated by injection of 10 mM Glycine-HCl pH 1.7 with a flow of injection of 20 μl/min and for a period of 60 seconds.

Sequence of Purified recombinant human CD26 (rhDipeptidyl peptidase IV; Creative BioMart; CAT #DPP4-116H) (P27487 29-766 limits assumed): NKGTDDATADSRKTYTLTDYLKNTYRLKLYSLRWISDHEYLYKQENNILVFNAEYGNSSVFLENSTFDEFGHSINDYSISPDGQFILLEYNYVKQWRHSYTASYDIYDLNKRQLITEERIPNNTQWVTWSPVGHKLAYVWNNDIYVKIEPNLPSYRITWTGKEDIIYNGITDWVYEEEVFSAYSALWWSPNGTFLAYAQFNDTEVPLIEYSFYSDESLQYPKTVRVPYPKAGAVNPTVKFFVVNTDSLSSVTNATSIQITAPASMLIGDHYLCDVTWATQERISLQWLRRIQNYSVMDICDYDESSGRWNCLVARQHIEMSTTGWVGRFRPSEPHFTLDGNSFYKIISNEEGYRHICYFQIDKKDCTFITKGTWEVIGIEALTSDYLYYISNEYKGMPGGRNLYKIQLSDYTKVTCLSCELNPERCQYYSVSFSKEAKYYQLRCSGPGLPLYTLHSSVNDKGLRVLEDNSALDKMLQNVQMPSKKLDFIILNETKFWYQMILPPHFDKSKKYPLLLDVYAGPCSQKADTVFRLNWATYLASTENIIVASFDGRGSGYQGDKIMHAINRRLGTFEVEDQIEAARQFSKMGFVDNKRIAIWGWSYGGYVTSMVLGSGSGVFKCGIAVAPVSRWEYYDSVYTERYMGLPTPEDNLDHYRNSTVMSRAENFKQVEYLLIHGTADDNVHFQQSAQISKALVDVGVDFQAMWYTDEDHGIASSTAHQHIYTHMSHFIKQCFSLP
T1 sequence (P22411 whole entry): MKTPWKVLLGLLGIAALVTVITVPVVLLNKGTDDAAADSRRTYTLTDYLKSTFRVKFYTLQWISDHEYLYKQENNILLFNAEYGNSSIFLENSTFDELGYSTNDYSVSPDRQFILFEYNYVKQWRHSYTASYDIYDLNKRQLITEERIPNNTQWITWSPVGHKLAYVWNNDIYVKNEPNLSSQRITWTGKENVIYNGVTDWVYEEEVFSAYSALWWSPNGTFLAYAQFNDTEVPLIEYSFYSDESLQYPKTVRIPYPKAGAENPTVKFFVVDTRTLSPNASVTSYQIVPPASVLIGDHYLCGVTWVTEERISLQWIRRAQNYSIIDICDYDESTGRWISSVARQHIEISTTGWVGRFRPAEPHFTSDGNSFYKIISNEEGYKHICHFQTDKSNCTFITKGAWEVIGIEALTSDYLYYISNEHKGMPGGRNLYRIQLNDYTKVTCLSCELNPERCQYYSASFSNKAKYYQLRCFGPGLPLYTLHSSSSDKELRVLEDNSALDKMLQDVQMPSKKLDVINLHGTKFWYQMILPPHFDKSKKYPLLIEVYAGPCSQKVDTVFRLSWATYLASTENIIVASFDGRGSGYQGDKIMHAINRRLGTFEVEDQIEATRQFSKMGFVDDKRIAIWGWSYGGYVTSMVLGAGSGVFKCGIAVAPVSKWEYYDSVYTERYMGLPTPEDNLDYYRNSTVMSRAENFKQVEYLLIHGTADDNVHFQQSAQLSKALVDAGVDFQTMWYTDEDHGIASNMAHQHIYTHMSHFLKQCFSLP
T3 sequence (P27487 29-766 limits assumed): as the sequence (P27487 29-766 limits assumed) above

B1: CDina26 (antibody, mouse IgG2b, kappa, V domains shown)
VH: QVQLQQSGAELVKPGASVKLSCKASGYTFRSYDINWVRQRPEQGLEWIGWIFPGDGSTKYNEKFKGKATLTTDKSSSTAYMQLSRLTSEDSAVYFCARWTVVGPGYFDVWGAGTTVTVSS
VL: QIVLTQSPAIMSASPGEKVTITCSASSSVSYMNWFQQKPGTSPKLWIYSTSNLASGVPARFSGSGSGTSYSLTISRMEAEDAATYYCQQRSSYPNTFGGGTKLEIKR
notes: also called antibodies produced by the PD 12002 hybridoma cell line deposit; murine monoclonal antibody against CD26
Consider B1, for which the binding result in assay [1], in assay [2] and in assay [4] was “no binding” each time. In addition, the values for the koff in assay [3] and in assay [5] were 2.8e-05 s⁻¹ and 0.000132 s⁻¹, respectively. Also, in assay [5], the Kd came to 5.02 nM. For the same molecule, the on-rate (kon) in assay [5] amounted to 26300 M⁻¹ s⁻¹.
